Reference: US20250134019A1, “TRIKETONE DIOXYGENASE VARIANTS FOR HERBICIDE TOLERANCE” (Monsanto Technology LLC, priority 2022, published 2025)
Residue numbers refer to the chain shown, from its start. Numbers in names are those of the source.

B1: Cl.Col.TDO1: TDO homolog from Coix lacryma-jobi, SEQ ID NO:14 (protein)
chain: MASSSWKVPTPVQELAATLEEPPSRYVLREKDRPSSPLVADDMPEPLPVINLSRLSEDAAEAAKLEAALQSWGLVLVTNHGIETSLMDDVMDTSREFFNQTLEEKQKYSNLIEGKRFQMEGYGNDRVSTEHQILNWNDRLHLKVAPDDERNYTHWPKHPESFRDVLHEYTLKTKKIRDNICSNGQDIGARFNYYPPCPRPDLVNGVQPHSDAGVLTILLVDKEIRGLQVQRDGIWYNVPRKPYTLLINLGDVMEIMSNGIFKSPVHRVVTNTEKERISLAMFYGVDAENVLEPAAGLLDEKRPARYRKVEITDFVAGVHEHFSRGTRFIESLKI
modifications: Coix lacryma-jobi
B2: Si.TDO: TDO homolog from Setaria italica, SEQ ID NO:8 (protein, listed as Setaria italica)
chain: MANESWKIPMLVQELAAKVQEPPSRYVQPEQQHPVSLVVGAEKPEAIPVIDLSRLLAADGADEEGSKLRLALQSWGLFLIDNHGIETSLMDDLINASREFFHLPLEEKQKCSNLIDGKHYQVEGYGNDPVASKDQILDWLDRLHLRVEPEDERNLVHWPEHPNSFRALLHKYTLNCKRIKDRILWAMAKSLGLDEDYIVAQFSGKAPSFARFNYYPPCPRPDIVFGAKPHSDGGVLTILLMDKDVGGLQVLRDGVWHNVPTSPHRLLVNIGDFSEIMSNGIFKSPVHRVVTNMGKERISLAMFHGLDPEKEIEPATALLHEKQLARYRKIKAKVYLAGFYEHFCRGTRFIDSEDLREVA
B3: Cl.Col.TDO2: TDO homolog from Coix lacryma-jobi, SEQ ID NO:16 (protein)
chain: MASSSWRVPTPVQELAAGVVEPPSQFVLQEQDRPESLLLATDMPEPIPVIDLSRLAAADEASKLRSALQTWGLFLVTNHGIEASLMDDVMAASRDFFYQPLEEKQKYSNLVGGKRFQMEGYGNDMVASQDQVLDWQDRLQLRVEPEDERNLAYWPKHPDSFRDLLHEYASKTKKVRDNVLQAMGKLLELGEDYFISQIGGKASAIARFNYYPPCPRPELVFGIKPHSDGGAVTILLVDNDVGGLQVQKDGIWYTVPSKPHTLVVNLGDSMEILNNGIFKSPVHRVVTNAEKERLSLAMFYGVEGQKVLEPAAALLGEERPARYRKIKAADYIVGLRQGIARGNRFIETLKI
modifications: Coix lacryma-jobi
B4: Ta.TDO: TDO homolog from Triticum aestivum, SEQ ID NO:10 (A4S from codon optimization) (protein, listed as Triticum aestivum)
chain: MASSDESPMVRPTVQELASAGVEEPPRQYVLPEQDRHGDLLAADEFPEPIPLIDLSRLTDADEAERLRAALQTWGFFLATNHGIEGSLMDAMMSVSREFFRQPAEEKQKCSNLVDGNGKDYQVEGYGSDKVVSEDQVLNWSDRLHLRVEPEDERNFAKWPSHPESFRDVLKEYASRTKEIRDLVLRSIAKLLEIDEDYFVNQISNKASGFARFNYYPPCPRPDLVLGLRAHSDGGLLTILFNDDTVGGLQVQRDGRWYNVSAKPHTLLINLADCLEIMNNGIFTSPIHRVVTNIKKDRLSLAVFYAVDAETMLEPAPGLLDDKRPPRYRKMLAKDFVAGLFEHFRQGKRFINTLKI
B5: TDO_6: Os.TDO variant, SEQ ID NO:38, G242S-P256E relative to D08 (protein)
chain: MADESWRAPALVQELAAKGVEEPPSRYLLREQDRPDVKLVAAELPEPIPVVDLGRLDGAEEATKLRVALQNWGFFLLTNHGIEASLMDDVMNLSREFFNQPIERKQKFSNLIDGKHFQIEGYGTDRVVTQDQVLDWSDRLHLRVEPKEEQDLAFWPDHPESFRDVLHKYASGCKRIRDDIIQAMAKLLELDEDYFLDRFNEAPTFARFNYYPPCPRPDLVFGIRPHSDGGLLTILLVDKDVSGLQVQRDGKWSNVEATPHTLLINLGDTMEVMSNGIFKSPVHRVVTNAEKERISLAMLYSVNDEKDIEPAAGLLDENRPARYRKVSVEEFRAGIFGKFSRGERYIDSLRI
modifications: TDO variant sequence
B6: TDO_8: Os.TDO variant, SEQ ID NO:42, Q32K-I48L-V133I-G242S-P256E relative to D08 (protein)
chain: B5 chain with Q32K, I48L, V133I
modifications: TDO variant sequence
B7: TDO_5: Os.TDO variant, SEQ ID NO:36, E120Q-G242S relative to D08 (protein)
chain: B5 chain with E120Q, E256P
modifications: TDO variant sequence
B8: TDO_7: Os.TDO variant, SEQ ID NO:40, G242S-S274C relative to D08 (protein)
chain: B5 chain with E256P, S274C
modifications: TDO variant sequence
B9: TDO_4: Os.TDO variant, SEQ ID NO:34, H116N-G242S relative to D08 (protein)
chain: B5 chain with H116N, E256P
modifications: TDO variant sequence
B10: TDO_3: Os.TDO variant, SEQ ID NO:32, P35S-G242S relative to D08 (protein)
chain: B5 chain with P35S, E256P
modifications: TDO variant sequence
B11: TDO_1: Os.TDO variant, SEQ ID NO:28, P35S-H116N relative to D08 (protein)
chain: B5 chain with P35S, H116N, S242G, E256P
modifications: TDO variant sequence
B12: ANDge.TDO: TDO homolog from Andropogon gerardii, SEQ ID NO:12 (protein, listed as Andropogon gerardii)
chain: MASSSWRVPTPVQELAAGVVEPPSQFVLQEQDRPESLLLAADMPEPIPVIDLSRLSAADEASKLQSALQTWGLFLVTNHGIEASLMDEVMAASRDFFHQPLQEKQKYSNLIGGKRFQMEGYGNDMVTSQDQILDWQDRLQLRVEPEDERNLAYWPKHPDSFRDLLHEYASKTKKVRDNLLRAMGKILELGDDYFISQIGEKASAVARFNYYPPCPRPELVFGIKPHSDGGAVTILLVDNDVGGLQVQKDGIWYTVPSKPHTLVVNLADSMEIMNNGIFKSPVHRVVTNAEKERLSLAMFYGVEGQKMLEPAAGLLGEDRPARYRKIKAADYIVGLRQGIAKGQRFIETLKI

Legend:
Format in all cases: in vivo
[1] = tested on: transgenic soybean plants; assay: Mesotrione injury of R0 transgenic soybean plants expressing TDO homologs; settings: 210 g a.i./ha mesotrione at V3-V4, rated 7-14 days after treatment, mean of all tested events
Procedure: Plant expression vectors comprising the selected TDO homologs under the control of one of two constitutive promoters were transformed into soybean via an Agrobacterium tumefaciens-mediated method. Following Agrobacterium transformation, R0 transgenic soybean plants containing a single copy of the transgene were identified through molecular characterization and segregation analysis. Transgenic and wild-type (control) plants were grown in 6-inch pots filled with BM7 soilless mix in a growth chamber under the conditions of 28° C./23° C. (light/dark) and a 16 hr light/8 hr dark photoperiod. Plants were fertilized with 15-5-15 liquid fertilizer at the V3-V4 growth stage and treated with 210 g a.i./ha mesotrione (1X=105 g a.i./ha; Callisto®, Syngenta in 1% crop oil). Plants were visually rated 7-14 days after treatment on a scale of 0% to 100%, with 0%=no injury and 100%=plant death, relative to the wild-type controls. The results summarized in Table 2 represent the mean of all tested events (10-15) for each construct.

[2] = tested on: transgenic soybean plants; assay: Response of R0 soybean plants transformed with Round 2 TDO variants to mesotrione; settings: R0 transgenic soybean sprayed with mesotrione
Source text: The next set of experiments was focused on determining if the balance between improved enzyme stability could outweigh a reduction in activity observed at optimal temperatures in soybean plants. […] To test this hypothesis, the eight variants from Round 2 biochemical analysis described in the preceding paragraph were transformed into soybean through Agrobacterium-mediated transformation, along with three controls. One of the controls (TDO_9) was a variant from the high-throughput screens that had poor activity. Two other controls were the D08 variant and the Os.TDO. R0 transgenic soybean plants were sprayed with the mesotrione herbicide to screen for herbicide tolerance. […] These included the Os.TDO control, the D08 variant and one Round 2 variant. The plants were scored for percent injury as described in the previous examples.

transgenic cotton plants = assay: Mesotrione treatment of cotton plants expressing TDO variants, crop injury; settings: for Crop Injury (%), 210 g/ha (2X) Mesotrione / Crop Injury (%), 840 g/ha (8X) Mesotrione: R2 cotton sprayed at V3
Procedure: Cotton is a crop of interest that is often exposed to high temperature growing conditions and thus, selected TDO variants were tested in cotton. Three TDO variants, D08, TDO_6, and TDO_8 were transformed into cotton (along with the Os.TDO control) using similar expression elements in single-cassette vectors or as part of multi-cassette vectors. R2 transgenic cotton plants were then screened for tolerance to mesotrione. Sixteen plants from two events each per construct were sprayed with two rates (2X and 8X) of mesotrione at V3 stage under normal (80° F.) and hot (100° F.) growing conditions. In addition, the effect of heat treatment on TDO accumulation in cotton plants were measured by ELISA. Cotton plants were planted and grown under normal greenhouse conditions (80° F. day/70° F. night) until V3 growth stage. Half of the plants were then moved to a higher temperature growth chamber (100° F. day/82° F. night) for the heat treatment, whereas the remaining half of the plants stayed in the same greenhouse (80° F. day/70° F. night). At day 3 after the plants were placed under different temperature conditions, leaf samples were collected for TDO protein measurement. The plants in 100° F. growth chamber and in 80° F. greenhouse were both sprayed with 2X mesotrione (210 g a.i./ha). Leaf samples were collected again 7 days after mesotrione treatment (DAT: Days After Treatment) for protein assay. Table 5 compares protein levels of the TDO variants in transgenic cotton plants grown under the two tested conditions. The protein levels for the TDO variants were measured at three time points for plants: 1) just before entering the high temperature treatment, 2) three days following placement into control (normal growth temperature) or high temperature (100° F.), and 3) 7 days after a 2X mesotrione spray.

[3] = promoter Constitutive 2, 3' UTR B

Molecule	% Injury [1, 3] [%]	R0 % Injury [2] [%]	also measured
B1	61	–	–
B2	–	–	% Injury ([1]; promoter Constitutive 1, 3' UTR A): 35%
B3	53	–	–
B4	50	–	–
B5	–	31	Crop Injury (%), 210 g/ha (2X) Mesotrione (transgenic cotton plants; Under 80° F.): 0%; Crop Injury (%), 840 g/ha (8X) Mesotrione (transgenic cotton plants; Under 80° F.): 0%; Crop Injury (%), 210 g/ha (2X) Mesotrione (transgenic cotton plants; Under 100° F.): 0%; Crop Injury (%), 840 g/ha (8X) Mesotrione (transgenic cotton plants; Under 100° F.): 0%; injury rates relative to Os.TDO controls (transgenic cotton plants; cotton at the higher temperature): trending even lower than the Os.TDO controls
B6	–	31	Crop Injury (%), 210 g/ha (2X) Mesotrione (transgenic cotton plants; Under 80° F.): 0.25%; Crop Injury (%), 840 g/ha (8X) Mesotrione (transgenic cotton plants; Under 80° F.): 0%; Crop Injury (%), 210 g/ha (2X) Mesotrione (transgenic cotton plants; Under 100° F.): 0.27%; Crop Injury (%), 840 g/ha (8X) Mesotrione (transgenic cotton plants; Under 100° F.): 0%
B7	–	30	–
B8	–	32	–
B9	–	32	–
B10	–	35	–
B11	–	30	–
B12	55	–	–
